The record followed here is patent US20180291110A1 (Hoffmann-La Roche, published 2018).

Where a chain is given by its changes, count along the chain named. Names may count otherwise.

To fix the notation:
B1: 4/94 murine VH / murine VL (antibody, V domains shown)
VH: EVQLQQSGAVLVKPGASVKLSCPASGFNIKDTYIHWVIQRPEQGLEWIGRIDPANGDTKCDPKFQVKATITADTSSNTAYLQLSSLTSEDTAVYFCVRDYLYPYYFDFWGQGTTLTVSS
VL: KIVMTQSPKSMSMSVGERVTLNCRASESVDTYVSWYQQKPEQSPELLIYGASNRYTGVPDRFTGSGSATDFTLTISSVQAEDLADYYCGQTYNYPLTFGAGTKLELKR
notes: 0 (mu) read as the murine parental domains of clone 4/94; also called 0 (mu) x 0 (mu)
B2: 4/94 murine VH / SEQ ID NO 201 (antibody, V domains shown)
VH: B1 VH
VL: KIQMTQSPSSLSASVGDRVTITCRASESVDTYVSWYQQKPGKAPKLLIYGASNRYTGVPSRFSGSGSGTDFTLTISSLQPEDFADYYCGQTYNYPLTFGQGTKLEI
B3: 4/94 murine VH / SEQ ID NO 207 (antibody, V domains shown)
VH: B1 VH
VL: KIVLTQSPGTLSLSPGERATLSCRASESVDTYVSWYQQKPGQAPRLLIYGASNRYTGVPDRFSGSGSGTDFTLTISRLEPEDFADYYCGQTYNYPLTFGQGTKLEI
B4: 4/94 murine VH / SEQ ID NO 208 (antibody, V domains shown)
VH: B1 VH
VL: B3 VL with K1E
B5: 4/94 murine VH / SEQ ID NO 209 (antibody, V domains shown)
VH: B1 VH
VL: B3 VL with V58I
B6: Pertuzumab HC x Pertuzumab (Tras.L3) G32A LC (antibody, V domains shown)
VH: EVQLVESGGGLVQPGGSLRLSCAASGFTFTDYTMDWVRQAPGKGLEWVADVNPNSGGSIYNQRFKGRFTLSVDRSKNTLYLQMNSLRAEDTAVYYCARNLGPSFYFDYWGQGTLVTVSS
VL: DIQMTQSPSSLSASVGDRVTITCKASQDVSIAVAWYQQKPGKAPKLLIYSASYRYTGVPSRFSGSGSGTDFTLTISSLQPEDFATYYCQQHYTTPPTFGQGTKVEIK
B7: Trastuzumab HC x Pertuzumab (Tras.L3) I31T LC (antibody, V domains shown)
VH: not shown
VL: B6 VL with I31T, A32G
B8: Pertuzumab HC x Pertuzumab (Tras.L3) K24R LC (antibody, V domains shown)
VH: B6 VH
VL: B6 VL with K24R, A32G
B9: Trastuzumab HC x Pertuzumab (Tras.L3) I31V LC (antibody, V domains shown)
VH: not shown
VL: B6 VL with I31V, A32G
B10: Pertuzumab HC x Pertuzumab (Tras.L3) P96Y LC (antibody, V domains shown)
VH: B6 VH
VL: B6 VL with A32G, P96Y
B11: Trastuzumab HC x Pertuzumab (Tras.L3) R54L LC (antibody, V domains shown)
VH: not shown
VL: B6 VL with A32G, R54L
B12: Trastuzumab HC x Pertuzumab (Tras.L3) Y53F LC (antibody, V domains shown)
VH: not shown
VL: B6 VL with A32G, Y53F
B13: Pertuzumab HC x Pertuzumab (Tras.L3) S30N LC (antibody, V domains shown)
VH: B6 VH
VL: B6 VL with S30N, A32G
B14: Pertuzumab HC x Pertuzumab (Tras.L3) G66R LC (antibody, V domains shown)
VH: B6 VH
VL: B6 VL with A32G, G66R
B15: Trastuzumab HC x Pertuzumab (Tras.L3) G66R LC (antibody, V domains shown)
VH: not shown
VL: B6 VL with A32G, G66R
B16: Pertuzumab HC x Pertuzumab (Tras.L3) T94Y LC (antibody, V domains shown)
VH: B6 VH
VL: B6 VL with A32G, T94Y
B17: Trastuzumab HC x Pertuzumab (Tras.L3) G32A LC (antibody, V domains shown)
VH: not shown
VL: B6 VL
B18: Pertuzumab HC x Pertuzumab (Tras.L3) T56S LC (antibody, V domains shown)
VH: B6 VH
VL: B6 VL with A32G, T56S
B19: Trastuzumab HC x Pertuzumab (Tras.L3) S30N LC (antibody, V domains shown)
VH: not shown
VL: B6 VL with S30N, A32G
B20: Pertuzumab HC x Pertuzumab (Tras.L3) R54L LC (antibody, V domains shown)
VH: B6 VH
VL: B6 VL with A32G, R54L
B21: Trastuzumab HC x Pertuzumab (Tras.L3) T56S LC (antibody, V domains shown)
VH: not shown
VL: B6 VL with A32G, T56S
B22: Pertuzumab HC x Pertuzumab (Tras.L3) I31T LC (antibody, V domains shown)
VH: B6 VH
VL: B6 VL with I31T, A32G
B23: Pertuzumab HC x Pertuzumab (Tras.L3) Y53F LC (antibody, V domains shown)
VH: B6 VH
VL: B6 VL with A32G, Y53F
B24: Trastuzumab HC x Pertuzumab (Tras.L3) K24R LC (antibody, V domains shown)
VH: not shown
VL: B6 VL with K24R, A32G
B25: Pertuzumab HC x Pertuzumab (Tras.L3) I31V LC (antibody, V domains shown)
VH: B6 VH
VL: B6 VL with I31V, A32G
B26: 2/99 VH15/VL17 (antibody, V domains shown)
VH: QQLQESGPGLVKPSETLSLTCTVSGFSLSSYAMSWVRQPPGKGLEWIGYIWSGGSTDYNPSLKSRVTISVDTSKNQVSLKLSSVTAADTAVYYCARRYGTSYPDYGDANGFDPWGQGTLVTVSS
VL: AIQLTQSPSSLSASVGDRVTITCRASQSISSYLAWYQQKPGKAPKLLIYRASTLASGVPSRFSGSGSGTDFTLTISSLQPEDFATYYCQQTYSSSNVDNTFGGGTKVEIK
B27: 2/99 VH22/VL17 (antibody, V domains shown)
VH: B26 VH with Q2S, L3M, E15Q, P39H, N59A, P60S, S61W, L62A
VL: B26 VL
B28: 2/99 VH20/VL17 (antibody, V domains shown)
VH: B26 VH with Q2S, L3M, E15Q, V36I, P39H, N59A
VL: B26 VL
B29: 2/99 VH21/VL17 (antibody, V domains shown)
VH: B26 VH with Q2S, L3M, E15Q, V36I, P39H, N59A, P60S, S61W, L62A
VL: B26 VL
B30: 2/99 VH18/VL17 (antibody, V domains shown)
VH: QVQLQESGPGLVKPSQTLSLTCTVSGFSLSSYAMSWIRQHPGKGLEWIGYIWSGGSTDYAPSLKSRVTISVDTSKNQFSLKLSSVTAADTAVYYCARRYGTSYPDYGDANGFDPWGQGTLVTVSS
VL: B26 VL
B31: 2/99 VH19/VL17 (antibody, V domains shown)
VH: B26 VH with Q2S, L3M, E15Q, V36I, P39H, N59A, V77F
VL: B26 VL
B32: 2/99 VH16/VL17 (antibody, V domains shown)
VH: B26 VH with Q116P
VL: B26 VL
B33: 2/99 VH17/VL17 (antibody, V domains shown)
VH: B26 VH with V70K, Q116P
VL: B26 VL

In one assay the target is T1, human transferrin receptor (recombinant, for surface plasmon resonance) (human, UniProt P02786 89-760).
T1 construct: also called huTfR; human transferrin receptor-biotinylated
T1 sequence (P02786 89-760 limits assumed): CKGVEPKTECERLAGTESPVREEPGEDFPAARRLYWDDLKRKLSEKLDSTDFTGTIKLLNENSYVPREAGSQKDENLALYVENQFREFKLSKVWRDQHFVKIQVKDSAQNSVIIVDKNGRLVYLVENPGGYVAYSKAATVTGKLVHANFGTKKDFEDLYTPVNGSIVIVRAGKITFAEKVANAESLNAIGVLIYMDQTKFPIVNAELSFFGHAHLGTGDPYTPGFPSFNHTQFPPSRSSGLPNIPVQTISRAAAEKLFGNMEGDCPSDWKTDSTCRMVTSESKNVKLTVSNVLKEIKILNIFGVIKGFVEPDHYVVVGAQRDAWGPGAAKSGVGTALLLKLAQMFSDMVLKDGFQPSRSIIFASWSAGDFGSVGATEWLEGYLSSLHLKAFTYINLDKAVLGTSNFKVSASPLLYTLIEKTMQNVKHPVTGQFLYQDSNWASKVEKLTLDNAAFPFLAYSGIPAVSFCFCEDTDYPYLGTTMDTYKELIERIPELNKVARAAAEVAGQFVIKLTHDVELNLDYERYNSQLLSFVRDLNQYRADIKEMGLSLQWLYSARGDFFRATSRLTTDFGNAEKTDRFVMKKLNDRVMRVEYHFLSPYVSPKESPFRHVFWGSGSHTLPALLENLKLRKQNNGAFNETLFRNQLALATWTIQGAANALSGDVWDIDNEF
Put plainly: SPR. On the technique in general: In SPR one partner is held on a chip, and binding of the other changes the refractive index at the surface.
In the case of B1, the koff (commonly the rate constant with which the complex falls apart) is 0.000136 s⁻¹.

Regarding B2, the koff was found to be 0.000137 s⁻¹.

For the molecule B3, the dissociation rate constant (koff) worked out at 0.000156 s⁻¹.

In the case of B4, the koff was 0.000148 s⁻¹.

For B5, the koff worked out at 0.000177 s⁻¹.

The target in another assay is T2, Her2 ECD (amino acids 1 to 629 of matured HER2 with C-terminal avi-tag and His-tag) (human, UniProt P04626 23-652).
T2 construct: also called purified Her2
In words: SPR, Ab captured, Her2 analyte.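 Further: ProteOn XPR36 SPR, rate constants from simultaneous fit of association and dissociation sensorgrams to a 1:1 Langmuir model, buffer-channel referenced, KD taken as koff/kon.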
On to B6, for which the affinity, expressed as Kd, was 3.66 nM; the koff turned out to be 0.00187 s⁻¹; the association rate constant (kon) – broadly, the rate constant with which the complex forms – stood at 511000 M⁻¹ s⁻¹.

As for B7, binding was characterised by a dissociation constant (Kd) of 7.21 nM, the koff is 0.00341 s⁻¹ and the kon came to 473000 M⁻¹ s⁻¹.

Consider B8, for which the Kd (usually the constant that tells how readily two partners part at equilibrium) was 4.62 nM, the koff came out at 0.00211 s⁻¹ and the kon was 457000 M⁻¹ s⁻¹.

With B9, binding was characterised by a dissociation constant (Kd) of 28 nM, the koff was determined as 0.0116 s⁻¹ and the kon was 413000 M⁻¹ s⁻¹.

B10 yielded a Kd of 2.82 nM, a koff of 0.00097 s⁻¹ and a kon of 344000 M⁻¹ s⁻¹.

Take B11: binding was put at a Kd of 71.5 nM, the koff was 0.0297 s⁻¹ and the kon worked out at 416000 M⁻¹ s⁻¹.

Regarding B12, binding was put at a Kd of 44.9 nM, the koff was 0.0171 s⁻¹ and the kon is 381000 M⁻¹ s⁻¹.

Regarding B13, the Kd worked out at 3.4 nM, the koff is 0.0018 s⁻¹ and the kon was determined as 530000 M⁻¹ s⁻¹.

In turn, B14 came in with a dissociation constant Kd of 6.91 nM, a koff of 0.00247 s⁻¹ and a kon of 358000 M⁻¹ s⁻¹.

The molecule B15 displayed a dissociation constant Kd of 10.9 nM, a koff of 0.00558 s⁻¹ and a kon of 514000 M⁻¹ s⁻¹.

For B16, the dissociation constant (Kd) was 0.782 nM, the koff came out at 0.00063 s⁻¹ and the kon amounted to 805000 M⁻¹ s⁻¹.

B17 returned a dissociation constant Kd of 3.97 nM, a koff of 0.00268 s⁻¹ and an on-rate constant (kon) of 675000 M⁻¹ s⁻¹.

With B18, the dissociation constant Kd was found to be 5.52 nM, the koff turned out to be 0.00245 s⁻¹ and the kon stood at 443000 M⁻¹ s⁻¹.

B19 returned a Kd of 64.6 nM, a koff of 0.0256 s⁻¹ and a kon of 396000 M⁻¹ s⁻¹.

The molecule B20 gave a Kd of 4.87 nM, an off-rate (koff) of 0.00226 s⁻¹ and a kon of 464000 M⁻¹ s⁻¹.

As to B21, binding was put at a Kd of 49.4 nM, the koff stood at 0.0232 s⁻¹ and the kon is 470000 M⁻¹ s⁻¹.

The molecule B22 came in with a dissociation constant Kd of 4.06 nM, a koff of 0.00175 s⁻¹ and a kon of 431000 M⁻¹ s⁻¹.

In turn, B23 came in with a Kd of 8.03 nM, an off-rate (koff) of 0.00254 s⁻¹ and a kon of 316000 M⁻¹ s⁻¹.

Take B24: the Kd worked out at 66.8 nM, the koff turned out to be 0.0252 s⁻¹ and the kon was found to be 377000 M⁻¹ s⁻¹.

B25 gave a Kd of 4.35 nM, a koff of 0.00192 s⁻¹ and a kon of 440000 M⁻¹ s⁻¹.

A further assay has as its target T1, human transferrin receptor …. Put plainly: SPR 25C.
For B26, the koff was found to be 0.00169 s⁻¹.

In the case of B27, the koff worked out at 0.000938 s⁻¹.

Consider B28, for which the koff was found to be 0.00457 s⁻¹.

As for B29, the koff came to 0.000997 s⁻¹.

As for B30, the koff is 0.0053 s⁻¹.

For the molecule B31, the koff was 0.001 s⁻¹.

Turning to B32, the koff came to 0.00166 s⁻¹.

In the case of B33, the dissociation rate constant (koff) worked out at 0.000988 s⁻¹.
